Measured values published in the supplement of paper PMC9112550, “Optimization of the antimicrobial peptide Bac7 by deep mutational scanning” (BMC Biology, 2022).

System: Escherichia coli TOP10
Experiment: shrunken log2 fold change of peptide-encoding DNA abundance (4.5 h post-induction vs induction); higher = less antimicrobial activity (less host growth inhibition)
Conditions: time post-induction: 4.5 h; library: site-saturation at positions 5, 18, 19, 20
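Also: peptides expressed intracellularly from a pBAD plasmid library in pooled LB shake-flask culture, induced with 0.3% L-arabinose, DNA abundance read by NGS, three biological replicates, DESeq2 with apeglm shrinkage.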

| Sequence | shrunken log2 fold change |
| --- | --- |
| RRIRYRPPRLPRPRPRPFFGPRP | -0.225 |
| RRIRCRPPRLPRPRPRPVTVPRP | -0.484 |
| RRIRMRPPRLPRPRPRPCYAPRP | -0.105 |
| RRIRCRPPRLPRPRPRPIIRPRP | -0.18 |
| RRIRDRPPRLPRPRPRPDIQPRP | -0.228 |
| RRIRARPPRLPRPRPRPFMTPRP | 0.178 |
| RRIRFRPPRLPRPRPRPFIQPRP | -0.707 |
| RRIRWRPPRLPRPRPRPILDPRP | 0.187 |
| RRIRMRPPRLPRPRPRPFGGPRP | 0.222 |
| RRIRRRPPRLPRPRPRPYGYPRP | 0.0179 |
| RRIRARPPRLPRPRPRPFNGPRP | 0.0657 |
| RRIRTRPPRLPRPRPRPLIEPRP | -0.325 |
| RRIRHRPPRLPRPRPRPHIVPRP | -0.104 |
| RRIRWRPPRLPRPRPRPDPFPRP | -0.0639 |
| RRIRTRPPRLPRPRPRPHVYPRP | -0.496 |
| RRIRCRPPRLPRPRPRPLRDPRP | 0.948 |
| RRIRHRPPRLPRPRPRPESSPRP | 0.087 |
| RRIRERPPRLPRPRPRPNMNPRP | -0.808 |
| RRIRCRPPRLPRPRPRPHGTPRP | -0.0488 |
| RRIRTRPPRLPRPRPRPITYPRP | -0.0511 |
| RRIRWRPPRLPRPRPRPKYKPRP | -0.558 |
| RRIRSRPPRLPRPRPRPIAIPRP | -0.0732 |
| RRIRPRPPRLPRPRPRPCWAPRP | 0.21 |

| Sequence | shrunken log2 fold change |
| --- | --- |
| RRIRHRPPRLPRPRPRPINWPRP | -0.35 |
| RRIRTRPPRLPRPRPRPGYIPRP | -0.288 |
| RRIRCRPPRLPRPRPRPAVKPRP | -0.132 |
| RRIRYRPPRLPRPRPRPGYGPRP | -0.541 |
| RRIRYRPPRLPRPRPRPEHMPRP | -0.304 |
| RRIRDRPPRLPRPRPRPCINPRP | 0.224 |
| RRIRARPPRLPRPRPRPDNLPRP | -0.0846 |
| RRIRYRPPRLPRPRPRPHDNPRP | -1.04 |
| RRIRKRPPRLPRPRPRPTSFPRP | -0.044 |
| RRIRDRPPRLPRPRPRPYVMPRP | -0.342 |
| RRIRLRPPRLPRPRPRPVREPRP | 0.185 |
| RRIRQRPPRLPRPRPRPTTCPRP | 0.106 |
| RRIRTRPPRLPRPRPRPSITPRP | -0.484 |
| RRIRVRPPRLPRPRPRPAPGPRP | 0.472 |
| RRIRNRPPRLPRPRPRPARFPRP | 0.0266 |
| RRIRTRPPRLPRPRPRPNRKPRP | -0.104 |
| RRIRLRPPRLPRPRPRPSYCPRP | -0.413 |
| RRIRNRPPRLPRPRPRPTKQPRP | -0.102 |
| RRIRLRPPRLPRPRPRPFQTPRP | -0.0347 |
| RRIRKRPPRLPRPRPRPQTHPRP | 0.372 |
| RRIRERPPRLPRPRPRPTLPPRP | 0.123 |
| RRIRKRPPRLPRPRPRPQMSPRP | -0.164 |
| RRIRWRPPRLPRPRPRPAHNPRP | 0.352 |

| Sequence | shrunken log2 fold change |
| --- | --- |
| RRIRWRPPRLPRPRPRPSKFPRP | -0.0435 |
| RRIRFRPPRLPRPRPRPLHEPRP | 0.0931 |
| RRIRQRPPRLPRPRPRPAESPRP | 0.0234 |
| RRIRWRPPRLPRPRPRPKDKPRP | 0.077 |
| RRIRMRPPRLPRPRPRPLFNPRP | -0.439 |
| RRIRIRPPRLPRPRPRPYIVPRP | -0.0153 |
| RRIRMRPPRLPRPRPRPFDVPRP | 0.268 |
| RRIRLRPPRLPRPRPRPTSEPRP | -0.0829 |
| RRIRIRPPRLPRPRPRPPSNPRP | -0.613 |
| RRIRDRPPRLPRPRPRPIWWPRP | 0.498 |
| RRIRMRPPRLPRPRPRPCYKPRP | -0.145 |
| RRIRFRPPRLPRPRPRPANRPRP | -0.0406 |
| RRIRHRPPRLPRPRPRPCKIPRP | -0.036 |
| RRIRVRPPRLPRPRPRPSREPRP | 0.0823 |
| RRIRLRPPRLPRPRPRPDRLPRP | -0.0156 |
| RRIRPRPPRLPRPRPRPSWAPRP | 0.0666 |
| RRIRARPPRLPRPRPRPNHKPRP | -0.351 |
| RRIRDRPPRLPRPRPRPFEEPRP | 0.0467 |
| RRIRKRPPRLPRPRPRPGGRPRP | 1.91 |
| RRIRSRPPRLPRPRPRPAAPPRP | 0.66 |
| RRIRTRPPRLPRPRPRPSPHPRP | -0.159 |
| RRIRQRPPRLPRPRPRPAKHPRP | 0.204 |
| RRIRPRPPRLPRPRPRPHRPPRP | 0.0359 |

| Sequence | shrunken log2 fold change |
| --- | --- |
| RRIRGRPPRLPRPRPRPLQGPRP | 0.226 |
| RRIRKRPPRLPRPRPRPVKRPRP | 0.0121 |
| RRIRARPPRLPRPRPRPNEAPRP | 0.269 |
| RRIRHRPPRLPRPRPRPFRYPRP | -0.737 |
| RRIRSRPPRLPRPRPRPSFQPRP | -0.282 |
| RRIRTRPPRLPRPRPRPSIHPRP | -0.561 |
| RRIRYRPPRLPRPRPRPPATPRP | 0.407 |
| RRIRMRPPRLPRPRPRPVLWPRP | 0.847 |
| RRIRMRPPRLPRPRPRPAYYPRP | -0.3 |
| RRIRWRPPRLPRPRPRPCQVPRP | -0.0191 |
| RRIRMRPPRLPRPRPRPKNHPRP | 0.412 |
| RRIRCRPPRLPRPRPRPFFPPRP | -0.167 |
| RRIRKRPPRLPRPRPRPEQCPRP | 0.025 |
| RRIRSRPPRLPRPRPRPQQRPRP | 0.153 |
| RRIRFRPPRLPRPRPRPTQIPRP | 0.0911 |
| RRIRMRPPRLPRPRPRPHCSPRP | 0.183 |
| RRIRERPPRLPRPRPRPHFTPRP | -0.246 |
| RRIRHRPPRLPRPRPRPEYGPRP | -0.0913 |
| RRIRLRPPRLPRPRPRPDQWPRP | -0.158 |
| RRIRVRPPRLPRPRPRPDRNPRP | -0.162 |
| RRIRDRPPRLPRPRPRPGAEPRP | 1.08 |
| RRIRHRPPRLPRPRPRPNIDPRP | -0.153 |
